Source: patent US20180161335

Key:
[1] = target: ARF3, purified from E. coli, preloaded with BODIPY FL GDP (UniProt P61204)
Chain of ARF3, purified from E. coli, preloaded with BODIPY FL GDP (P61204 whole entry): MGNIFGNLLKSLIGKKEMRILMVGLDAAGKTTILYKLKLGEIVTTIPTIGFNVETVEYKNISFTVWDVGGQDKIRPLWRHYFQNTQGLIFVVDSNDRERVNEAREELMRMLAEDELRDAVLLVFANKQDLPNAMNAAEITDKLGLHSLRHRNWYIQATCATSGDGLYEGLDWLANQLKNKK

In the case of “C9ORF72 isoform A, 2x HA-tagged, in HEK cell lysate”, the “guanine exchange activity (BODIPY-GDP fluorescence)” value (the other GTPases tested) is reported as “Significant activity was not observed using both C9ORF72 isoforms on the other GTPases tested” and the “guanine exchange activity (BODIPY-GDP fluorescence)” value [1] is reported as “C9ORF72 isoforms A and B stimulated guanine exchange on ARF3”.
